Experimental data published in PMC7619409 (Molecular cell, 2024).
One block for each binder: values may come before it.

Experiments:
Experiment in all cases: cryo-EM structure; SWR1-hexasome complex, 3.5 Å; SWR1 premixed 1:1 with hexasome, 1 mM ADP:BeF, 25 mM HEPES pH 7.5, 50 mM NaCl, 30°C 10 min, glycerol gradient, no crosslinking
Settings in all cases: both partners purified
[1] = molecular target: T1, Arp6 subunit (yeast, UniProt Q12509 1-438)
T1 construct: Stood in the assay as part of m1
T1 sequence: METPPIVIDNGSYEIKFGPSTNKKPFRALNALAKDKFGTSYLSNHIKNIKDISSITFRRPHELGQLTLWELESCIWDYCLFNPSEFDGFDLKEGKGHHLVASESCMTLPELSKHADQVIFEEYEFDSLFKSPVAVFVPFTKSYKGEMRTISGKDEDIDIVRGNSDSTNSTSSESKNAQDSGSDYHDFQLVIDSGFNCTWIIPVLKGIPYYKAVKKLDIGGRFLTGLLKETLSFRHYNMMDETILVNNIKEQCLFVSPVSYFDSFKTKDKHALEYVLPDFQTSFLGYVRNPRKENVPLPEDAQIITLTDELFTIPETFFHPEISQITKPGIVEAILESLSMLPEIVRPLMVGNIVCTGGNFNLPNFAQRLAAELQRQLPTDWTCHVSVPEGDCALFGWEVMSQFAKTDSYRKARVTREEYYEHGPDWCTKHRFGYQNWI

[2] = molecular target: T2, Swr1 subunit (yeast, UniProt Q05471 1-1514)
T2 construct: Stood in the assay as part of m1; also called Swr1 motor domains

[3] = molecular target: S. cerevisiae histone H4 (S. cerevisiae, UniProt P02309 1-103)

T2 sequence (Q05471 whole entry, the tested form may be a part): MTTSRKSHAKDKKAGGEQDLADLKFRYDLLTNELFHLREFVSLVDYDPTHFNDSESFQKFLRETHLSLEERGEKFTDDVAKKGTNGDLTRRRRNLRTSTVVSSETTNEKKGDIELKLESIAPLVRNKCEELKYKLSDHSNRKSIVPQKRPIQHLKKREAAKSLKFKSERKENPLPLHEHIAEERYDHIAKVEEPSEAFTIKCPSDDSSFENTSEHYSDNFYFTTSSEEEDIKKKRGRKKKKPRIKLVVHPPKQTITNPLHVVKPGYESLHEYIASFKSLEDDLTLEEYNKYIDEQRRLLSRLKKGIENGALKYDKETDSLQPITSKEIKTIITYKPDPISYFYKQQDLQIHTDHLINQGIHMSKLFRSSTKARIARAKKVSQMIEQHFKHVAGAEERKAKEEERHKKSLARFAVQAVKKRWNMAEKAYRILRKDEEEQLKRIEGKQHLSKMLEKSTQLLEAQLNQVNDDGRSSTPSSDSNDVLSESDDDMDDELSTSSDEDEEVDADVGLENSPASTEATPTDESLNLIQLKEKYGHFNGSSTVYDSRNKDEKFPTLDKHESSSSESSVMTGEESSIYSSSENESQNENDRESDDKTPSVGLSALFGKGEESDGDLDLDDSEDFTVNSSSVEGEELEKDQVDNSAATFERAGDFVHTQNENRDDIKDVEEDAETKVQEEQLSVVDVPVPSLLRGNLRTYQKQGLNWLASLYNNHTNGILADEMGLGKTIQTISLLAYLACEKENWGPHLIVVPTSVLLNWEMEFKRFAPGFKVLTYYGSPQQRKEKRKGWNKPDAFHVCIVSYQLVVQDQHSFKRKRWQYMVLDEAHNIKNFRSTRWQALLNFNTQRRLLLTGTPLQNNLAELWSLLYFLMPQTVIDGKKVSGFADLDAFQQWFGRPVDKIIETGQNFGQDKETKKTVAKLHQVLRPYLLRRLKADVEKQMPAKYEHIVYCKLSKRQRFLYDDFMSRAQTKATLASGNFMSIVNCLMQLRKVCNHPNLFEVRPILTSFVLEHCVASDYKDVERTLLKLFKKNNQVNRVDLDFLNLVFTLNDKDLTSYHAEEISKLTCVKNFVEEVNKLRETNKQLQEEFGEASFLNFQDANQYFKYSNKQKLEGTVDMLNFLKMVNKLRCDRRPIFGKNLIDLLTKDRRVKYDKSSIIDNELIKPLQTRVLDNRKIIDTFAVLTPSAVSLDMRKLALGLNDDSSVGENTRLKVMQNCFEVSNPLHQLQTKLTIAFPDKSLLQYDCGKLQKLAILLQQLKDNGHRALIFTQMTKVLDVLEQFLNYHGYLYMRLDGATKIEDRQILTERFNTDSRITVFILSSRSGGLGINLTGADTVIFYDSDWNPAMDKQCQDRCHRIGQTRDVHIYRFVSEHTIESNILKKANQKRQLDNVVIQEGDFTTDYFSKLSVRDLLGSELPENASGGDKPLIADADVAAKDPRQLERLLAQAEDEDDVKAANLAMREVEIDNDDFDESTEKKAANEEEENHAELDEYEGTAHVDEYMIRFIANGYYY

binding result [1]: binds
B1: Swc6 subunit (natural protein, yeast)
chain: MKALVEEIDKKTYNPDIYFTSLDPQARRYTSKKINKQGTISTSRPVKRINYSLADLEARLYTSRSEGDGNSISRQDDRNSKNSHSFEERYTQQEILQSDRRFMELNTENFSDLPNVPTLLSDLTGVPRDRIESTTKPISQTSDGLSALMGGSSFVKEHSKYGHGWVLKPETLREIQLSYKSTKLPKPKRKNTNRIVALKKVLSSKRNLHSFLDSALLNLMDKNVIYHNVYNKRYFKVLPLITTCSICGGYDSISSCVNCGNKICSVSCFKLHNETRCRNR
notes: Stood in the assay as part of m1

binding result [2]: binds
binding result [3]: binds
B2: Swc5 subunit (natural protein, yeast)
chain: MPEVETKIIPNEKEDEDEDGYIEEEDEDFQPEKDKLGGGSDDSDASDGGDDYDDGVNRDKGRNKVDYSRIESESGGLIKTRRARQAEEEYAKTHKYESLTVESIPAKVNSIWEELQEASKNRLLSSSGKVGSVLDGSKEARSTTAAQQEDKILIERNYKFAGETVHEKKWVSRSSAEGQEYLNSLKFKQQAPAAPVQLEKAVRTKSNESRQHLRRPLKRPPLLEQIISGGLRPKLTTLEKSQLDWASYVDRAGLNDELVLHNKDGFLARQEFLQRVGSAEDERYKELRRQQLAQQLQQDSEAS
notes: residues 196-303 built in the structure; Stood in the assay as part of m1
